Test results from PMC3025356, “Mechanism of the Ca^2+-Dependent Interaction between S100A4 and Tail Fragments of Nonmuscle Myosin Heavy Chain IIA” (Journal of Molecular Biology, 2011).
pKd: −log10 of the molar value. Like-named read-outs stand apart in the source and are kept apart here.

Tests used:
[1] = molecular target: S100A4 (wild type, full-length) (UniProt P26447); experiment: fluorescence polarisation; as a1 but without Ca2+: EGTA added to 1 mM at the end of the titration
[2] = molecular target: S100A4 (wild type, full-length) (UniProt P26447); experiment: stopped-flow fluorescence; 0.1 μM F-M16^N mixed with S100A4, fluorescein emission intensity, with Ca2+; kobs against [S100A4]; dissociation also by displacement with excess M32
[3] = molecular target: S100A4 (wild type, full-length) (UniProt P26447); experiment: as above; remark: listed apart in the source
[4] = molecular target: S100A4 (wild type, full-length) (UniProt P26447); experiment: fluorescence polarisation; fluorescein anisotropy; 0.1 μM F-M16^N titrated with S100A4; 20 mM NaCl, 10 mM Hepes, 1 mM Mg2+, 100 μM Ca2+, pH 7.5, 20 °C; apparent; 1:1 binding per S100A4 monomer assumed
[5] = molecular target: S100A4 (wild type, full-length) (UniProt P26447); experiment: fluorescence polarisation + other: stopped-flow fluorescence; K2 with Ca2+: anisotropy value corrected for the 35% quench of fluorescein, identical with k-2/k2 of the stopped-flow records; per S100A4 monomer
[6] = molecular target: S100A4 (wild type, full-length) (UniProt P26447); experiment: fluorescence polarisation; competition: displacement of F-M16^N (5 μM) from S100A4 (5 μM) by increasing M32 or M16^N, with Ca2+; fit to a competitive single-site model with Kd of F-M16^N fixed at 2 μM

S100A4 (wild type, full-length), sequence (P26447 whole entry): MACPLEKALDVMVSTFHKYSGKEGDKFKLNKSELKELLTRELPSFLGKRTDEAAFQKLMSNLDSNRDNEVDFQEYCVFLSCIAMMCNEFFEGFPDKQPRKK

pKd [1]	koff [2]	kon [2]	koff [3]	pKd [4]	pKd [5]	pKd [6]	Substance
< 3.52	6.2 s⁻¹	4.9e+06 M⁻¹ s⁻¹	7.7 s⁻¹	5.70	5.89	–	F-M16^N, fluorescein-labelled M16^N myosin peptide (NM-MHC IIA D1908-R1923) (from UniProt P35579-1 1908-1923)
–	–	–	–	–	–	< 4.00	M16^N myosin peptide (NM-MHC IIA D1908-R1923) (from UniProt P35579-1 1908-1923)
